Data as given in patent US20240424125A1 (Zymeworks, published 2024).

Assays:
[1] = target: T1, recombinant His-tagged human FRα (ACROBiosystems) (human, UniProt P15328 25-233); assay: BLI (Octet RED96): antibody on anti-human IgG Fc capture biosensor, His-tagged hFRα as analyte, 1:1 global fit, mean of n=2
T1 construct: also called hFRα; hFRα antigen; not shown: His tag
Method: The assay buffer used was KB buffer (kinetics buffer, composed of PBS pH 7.4, 0.1% BSA, 0.02% Tween 20, 0.05% sodium azide) supplemented with 0.06% Tween 20 and in some instances also with 1% BSA. The experiment was conducted at 30° C. with a shake speed of 1000 rpm.
Data analysis was performed using Data Analysis Software 9.0 (ForteBio, Fremont CA). The reference-subtracted binding curves were globally fitted to the 1:1 interaction model to generate the binding kinetic parameters kₒₙ, koff, and the dissociation constant KD.

[2] = target: T1, recombinant His-tagged human FRα …; assay: SPR (Biacore T200): hFRα amine-coupled to CM5 chip at high antigen density, one-armed antibody injected, 1:1 Langmuir fit, mean of n=2
Method: (§1) CM5 Series S sensor chip, Biacore™ amine coupling kit (NHS, EDC and 1 M ethanolamine), and 10 mM sodium acetate buffers were purchased from GE Healthcare Life Science (Mississauga, ON, Canada). PBS running buffer with 0.05% Tween20 (PBST) was purchased from Teknova Inc. (Hollister, CA). Recombinant human FRα was purchased from ACRObiosystems (Newark, DE).
(§2) Screening of the variants for binding to hFRα antigen was conducted in two steps: capture of hFRα onto surface, followed by injection of three to five concentrations of variant. The hFRα surface was prepared on a CM5 Series S sensor chip by standard amine coupling methods as described by the manufacturer (GE Healthcare Life Science, Mississauga, ON, Canada). The immobilization of the hFRα was performed using Biacore™ T200 immobilization wizard with an amine coupling method aiming for resonance units (RUs) ranging from 5 to 200 RUs. Using multi-cycle kinetics, three to five concentrations of a two-fold dilution series of samples starting at 300 nM with a blank buffer control were injected at 50 uL/min for 180s with a 600s dissociation phase, resulting in a set of sensorgrams with a buffer blank reference. The hFRα surface was regenerated to prepare for the next injection cycle by one pulse of 10 mM glycine/HCl pH 1.5 for 30s at 30 uL/min. Blank-subtracted sensorgrams were analyzed using Biacore™ T200 Evaluation Software v3.0. The blank-subtracted sensorgrams were then fit to the 1:1 Langmuir binding model.

[3] = target: T1, recombinant His-tagged human FRα …; assay: SPR (Biacore T200): hFRα amine-coupled to CM5 chip at medium antigen density, one-armed antibody injected, 1:1 Langmuir fit, mean of n=2
Method: as §1, §2

[4] = target: T1, recombinant His-tagged human FRα …; assay: SPR (Biacore T200): hFRα amine-coupled to CM5 chip at medium-low antigen density, one-armed antibody injected, 1:1 Langmuir fit, mean of n=2
Method: as §1, §2

T1 sequence (P15328 25-233 limits assumed): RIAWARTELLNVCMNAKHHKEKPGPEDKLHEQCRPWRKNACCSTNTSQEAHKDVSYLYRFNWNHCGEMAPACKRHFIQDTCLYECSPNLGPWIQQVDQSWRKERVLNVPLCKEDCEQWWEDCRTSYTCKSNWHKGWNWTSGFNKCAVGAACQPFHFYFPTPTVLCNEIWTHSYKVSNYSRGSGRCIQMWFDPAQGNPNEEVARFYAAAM

| Binder | Kd [1] [nM] | Kd [2] [nM] | Kd [3] [nM] | Kd [4] [nM] |
| --- | --- | --- | --- | --- |
| v31423 (antibody, human IgG1, kappa, V domains shown, Humanized IgG1/kappa, HomoFc; also called 3dH4L) VH: EVQLLESGGGLVQPGGSLRLSCAVSGFSLSSYGVSWVRQAPGKGLEWIGAVNSGGSAYYADSVKGRSTISRDTSKNTVYLQMNSLRAEDTAVYYCARSGSGYPMDYLAIWGQGTLVTVSS VL: DYQMTQSPSSVSASVGDRVTITCRASQSIGDWLAWYQQKPGKAPKLLIYEASTLASGVPSRFSGSGSGTDFTLTISSVQPEDAATYYCQQGYGRSNVDNIFGGGTKVEVKR | 110 |  |  |  |
| v31424 (antibody, human IgG1, kappa, Humanized IgG1/kappa, HomoFc; also called 3eH4L) heavy: not shown light: DYQMTQSPSSVSASVGDRVTITCRASQSIGDWLAWYQQKPGKAPKLLIYEASTLASGVPSRFSGSGSGTDFTLTISSVQPEDAATYYCQQGYGRSNVDNIFGGGTKVEVKRTVAAPSVFIFPPSDEQLKSGTASVVCLLNNFYPREAKVQWKVDNALQSGNSQESVTEQDSKDSTYSLSSTLTLSKADYEKHKVYACEVTHQGLSSPVTKSFNRGEC | 110 |  |  |  |
| v31425 (antibody, human IgG1, kappa, Humanized IgG1/kappa, HomoFc; also called 3fH4L) heavy: not shown light: DYQMTQSPSSVSASVGDRVTITCRASQSIGDWLAWYQQKPGKAPKLLIYEASTLASGVPSRFSGSGSGTDFTLTISSVQPEDAATYYCQQGYGRSNVDNIFGGGTKVEVKRTVAAPSVFIFPPSDEQLKSGTASVVCLLNNFYPREAKVQWKVDNALQSGNSQESVTEQDSKDSTYSLSSTLTLSKADYEKHKVYACEVTHQGLSSPVTKSFNRGEC | 160 |  |  |  |
| v32596 (antibody, V domains shown, One-armed antibody (OAA) format, said to be the equivalent of the FSA v23924; also called OAA v23924 equivalent; one-armed antibody equivalent of v23924) VH: QSVKESEGGLFKPTDTLTLTCTVSGFSLSSYGVSWVRQAPGNGLEWIGAVNSGGSAYYANWAKSRSTITRNTNLFTVTLKMTSLAVADTATYFCARSGSGYPMDYLAIWGPGTLVTVSS VL: AYDMTQTPASVEVAVGGTVTIKCQASQSIGDWLAWYQQKPGQPPRLLIYEASTLASGVPSRFSGSGSGTQFTLTISGVECADAATYYCQQGYGRSNVDNIFGGGTEVVVK |  | 30 | 30.3 | 37.9 |
| v32597 (antibody, V domains shown, One-armed antibody (OAA) format, equivalent of v30384; also called OAA v30384 equivalent; one-armed antibody equivalent of v30384) VH: EVQLLESGGGLVQPGGSLRLSCAVSGFSLSSYGVSWVRQAPGKGLEWIGAVNSGGSAYYADSVKGRSTISRDNSKNTVYLQMNSLRAEDTAVYYCARSGSGYPMDYLAIWGQGTLVTVSS VL: DYQMTQSPSSVSASVGDRVTITCRASQSIGDWLAWYQQKPGKAPKLLIYEASTLASGVPSRFSGSGSGTDFTLTISSVQPEDAATYYCQQGYGRSNVDNIFGGGTKVEVK |  | 143 | 139 | 146 |
| v32598 (antibody, V domains shown, One-armed antibody (OAA) format, equivalent of v30399; also called OAA v30399 equivalent; one-armed antibody equivalent of v30399) VH: EVQVLESGGGLVQPGGSLRLSCAVSGFSLSSYGVSWVRQAPGKGLEWIGAVNSGGSAYYADWAKGRSTISRDNSKNTVYLQMNSLRAEDTAVYYCARSGSGYPMDYLAIWGQGTLVTVSS VL: DYQMTQSPSSVSASVGDRVTITCRASQSIGDWLAWYQQKPGKAPKLLIYEASTLASGVPSRFSGSGSGTDFTLTISSVQPEDAATYYCQQGYGRSNVDNIFGGGTKVEVK |  | 82 | 80.8 | 91.5 |
